Article PMC3176292

Columns and labels:
Assay in all cases: co-IP; LUMIER: Renilla luciferase-Smad3 and Flag-tagged partner co-expressed with constitutively active Alk5 in HEK-293; Flag protein captured from cleared lysate (TNE: 10 mM Tris-HCl pH 7.8, 150 mM NaCl, 1 mM EDTA, 1% Igepal CA-630) on anti-Flag 96-well plates, 2 h at 4 °C; co-precipitated Renilla luciferase activity, TrxGA background subtracted, percent of wild-type Smad3
[1] = biological target: Smurf2 Smad-binding domain (amino acids 252–330) on the Flag-thioredoxin scaffold (UniProt Q9HAU4)
Flag-Smad4, full length = Flag-Smad4, full length (UniProt Q13485)
[2] = biological target: SARA Smad-binding domain (amino acids 665–721) on the 3xFlag-thioredoxin scaffold (UniProt O95405)
Flag-Smad3, full length = Flag-Smad3, full length (UniProt P84022)
[3] = biological target: Flag-SkiW274E, full length (UniProt P12755)
Flag-SARA, full length = Flag-SARA, full length (UniProt O95405)
[4] = biological target: SIP1 Smad-binding domain (amino acids 315–487) on the 3xFlag-thioredoxin scaffold (UniProt Q9R0G7)
[5] = biological target: Ski Smad-binding domain (amino acids 2–56) on the 3xFlag-thioredoxin scaffold (UniProt P12755)
Ski Smad-binding domain (amino acids 2–56) on the 3xFlag-thioredoxin scaffold, sequence (P12755 2-56): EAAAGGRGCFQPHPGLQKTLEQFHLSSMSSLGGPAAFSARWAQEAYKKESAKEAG

Renilla luciferase-Smad3 Del-PPGY (182–185), sequence (P84022 whole entry): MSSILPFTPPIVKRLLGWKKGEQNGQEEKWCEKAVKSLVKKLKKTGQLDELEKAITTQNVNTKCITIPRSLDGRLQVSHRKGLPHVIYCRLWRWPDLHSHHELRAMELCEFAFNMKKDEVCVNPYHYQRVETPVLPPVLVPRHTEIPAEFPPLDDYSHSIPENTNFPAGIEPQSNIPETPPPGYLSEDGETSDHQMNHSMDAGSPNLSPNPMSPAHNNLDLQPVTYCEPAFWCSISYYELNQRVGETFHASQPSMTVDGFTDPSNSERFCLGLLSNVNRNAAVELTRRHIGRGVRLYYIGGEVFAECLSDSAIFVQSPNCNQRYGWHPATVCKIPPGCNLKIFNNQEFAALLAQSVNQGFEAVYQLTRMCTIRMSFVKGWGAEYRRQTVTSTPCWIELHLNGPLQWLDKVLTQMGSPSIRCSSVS
Flag-Smad3, full length, sequence (P84022 whole entry): as above
Flag-SkiW274E, full length, sequence (P12755 whole entry W274E): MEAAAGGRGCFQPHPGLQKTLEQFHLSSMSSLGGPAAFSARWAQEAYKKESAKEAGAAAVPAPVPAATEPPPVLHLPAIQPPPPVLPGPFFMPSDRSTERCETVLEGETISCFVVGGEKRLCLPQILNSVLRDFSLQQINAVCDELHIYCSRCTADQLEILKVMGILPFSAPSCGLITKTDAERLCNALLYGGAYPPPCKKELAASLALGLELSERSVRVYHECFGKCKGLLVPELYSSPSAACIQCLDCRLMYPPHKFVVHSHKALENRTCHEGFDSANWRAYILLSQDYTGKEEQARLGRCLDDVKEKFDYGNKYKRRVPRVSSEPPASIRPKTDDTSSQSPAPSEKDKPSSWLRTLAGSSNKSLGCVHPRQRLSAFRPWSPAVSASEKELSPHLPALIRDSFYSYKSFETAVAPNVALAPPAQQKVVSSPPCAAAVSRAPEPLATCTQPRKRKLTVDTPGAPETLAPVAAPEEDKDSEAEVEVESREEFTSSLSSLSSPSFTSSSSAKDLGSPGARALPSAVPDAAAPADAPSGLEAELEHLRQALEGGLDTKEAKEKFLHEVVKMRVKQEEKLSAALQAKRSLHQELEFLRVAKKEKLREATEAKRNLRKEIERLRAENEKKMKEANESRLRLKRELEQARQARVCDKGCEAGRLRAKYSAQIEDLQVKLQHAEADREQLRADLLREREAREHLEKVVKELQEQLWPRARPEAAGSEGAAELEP
Smurf2 Smad-binding domain (amino acids 252–330) on the Flag-thioredoxin scaffold, sequence (Q9HAU4 252-330): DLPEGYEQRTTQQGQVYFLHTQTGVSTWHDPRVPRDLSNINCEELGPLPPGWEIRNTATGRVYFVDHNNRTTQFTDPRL
Flag-Smad4, full length, sequence (Q13485 whole entry, the tested form may be a part): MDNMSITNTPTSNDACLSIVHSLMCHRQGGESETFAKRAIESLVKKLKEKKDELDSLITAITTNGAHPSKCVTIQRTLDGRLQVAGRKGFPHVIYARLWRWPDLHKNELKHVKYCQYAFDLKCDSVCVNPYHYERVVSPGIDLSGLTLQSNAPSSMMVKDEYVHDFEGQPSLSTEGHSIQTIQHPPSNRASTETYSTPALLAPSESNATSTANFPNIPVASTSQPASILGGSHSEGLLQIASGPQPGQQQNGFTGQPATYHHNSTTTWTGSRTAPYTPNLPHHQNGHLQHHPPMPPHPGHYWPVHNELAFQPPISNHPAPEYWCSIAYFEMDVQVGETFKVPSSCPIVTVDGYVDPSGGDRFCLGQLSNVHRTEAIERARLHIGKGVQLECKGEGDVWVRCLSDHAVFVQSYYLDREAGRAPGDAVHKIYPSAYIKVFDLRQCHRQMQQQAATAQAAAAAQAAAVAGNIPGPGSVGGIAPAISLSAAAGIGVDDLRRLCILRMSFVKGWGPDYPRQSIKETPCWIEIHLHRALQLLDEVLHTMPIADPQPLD
SIP1 Smad-binding domain (amino acids 315–487) on the 3xFlag-thioredoxin scaffold, sequence (Q9R0G7 315-487): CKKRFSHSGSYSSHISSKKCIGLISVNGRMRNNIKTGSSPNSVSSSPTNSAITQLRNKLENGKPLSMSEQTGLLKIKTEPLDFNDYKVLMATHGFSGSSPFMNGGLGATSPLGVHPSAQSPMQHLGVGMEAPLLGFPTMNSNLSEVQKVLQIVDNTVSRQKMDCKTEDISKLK
SARA Smad-binding domain (amino acids 665–721) on the 3xFlag-thioredoxin scaffold, sequence (O95405 767-823): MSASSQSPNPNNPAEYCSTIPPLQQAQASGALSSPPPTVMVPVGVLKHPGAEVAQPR
Flag-SARA, full length, sequence (O95405 whole entry, the tested form may be a part): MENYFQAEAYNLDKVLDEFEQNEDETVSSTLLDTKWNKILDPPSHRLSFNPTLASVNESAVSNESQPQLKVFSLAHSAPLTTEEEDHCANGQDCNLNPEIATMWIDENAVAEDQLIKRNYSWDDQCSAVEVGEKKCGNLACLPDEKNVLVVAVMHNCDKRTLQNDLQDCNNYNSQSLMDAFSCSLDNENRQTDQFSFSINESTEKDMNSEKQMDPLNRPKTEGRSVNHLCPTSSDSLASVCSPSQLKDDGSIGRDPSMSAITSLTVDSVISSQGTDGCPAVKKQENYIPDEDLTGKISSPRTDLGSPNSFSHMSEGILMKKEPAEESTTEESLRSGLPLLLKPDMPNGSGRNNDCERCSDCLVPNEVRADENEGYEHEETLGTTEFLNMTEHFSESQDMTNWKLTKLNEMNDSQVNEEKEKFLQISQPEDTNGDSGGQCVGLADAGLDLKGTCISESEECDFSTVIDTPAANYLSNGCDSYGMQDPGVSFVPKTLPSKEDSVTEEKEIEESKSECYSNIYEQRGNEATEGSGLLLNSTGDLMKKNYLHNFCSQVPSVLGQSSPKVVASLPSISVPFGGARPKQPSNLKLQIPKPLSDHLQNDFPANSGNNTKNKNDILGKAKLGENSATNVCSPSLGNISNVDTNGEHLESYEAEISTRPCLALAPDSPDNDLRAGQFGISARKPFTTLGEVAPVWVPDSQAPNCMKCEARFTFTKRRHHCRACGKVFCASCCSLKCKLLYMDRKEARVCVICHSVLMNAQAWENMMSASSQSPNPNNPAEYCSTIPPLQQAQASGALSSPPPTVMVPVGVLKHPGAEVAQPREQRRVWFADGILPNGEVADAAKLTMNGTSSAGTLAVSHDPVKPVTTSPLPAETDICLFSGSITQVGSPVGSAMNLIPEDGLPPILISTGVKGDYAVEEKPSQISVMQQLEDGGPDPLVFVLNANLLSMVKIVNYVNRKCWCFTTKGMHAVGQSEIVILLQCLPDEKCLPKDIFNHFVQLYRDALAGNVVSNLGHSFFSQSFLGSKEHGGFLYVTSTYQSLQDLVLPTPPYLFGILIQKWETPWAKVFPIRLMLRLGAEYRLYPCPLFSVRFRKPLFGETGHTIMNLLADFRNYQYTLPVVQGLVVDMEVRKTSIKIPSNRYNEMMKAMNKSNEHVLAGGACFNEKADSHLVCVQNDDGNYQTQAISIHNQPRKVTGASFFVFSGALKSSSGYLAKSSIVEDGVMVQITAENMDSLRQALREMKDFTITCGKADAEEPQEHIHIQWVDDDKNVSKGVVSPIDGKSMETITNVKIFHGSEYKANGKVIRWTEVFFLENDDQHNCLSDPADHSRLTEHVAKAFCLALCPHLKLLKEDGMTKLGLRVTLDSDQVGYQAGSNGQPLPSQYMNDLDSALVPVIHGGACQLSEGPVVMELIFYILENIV

percent binding relative to wild-type Smad3 [1]: 3%
percent binding relative to wild-type Smad3 (Flag-Smad4, full length): 120%
percent binding relative to wild-type Smad3 [2]: 129%
percent binding relative to wild-type Smad3 (Flag-Smad3, full length): 86%
percent binding relative to wild-type Smad3 [3]: 83%
percent binding relative to wild-type Smad3 (Flag-SARA, full length): 158%
percent binding relative to wild-type Smad3 [4]: 200%
percent binding relative to wild-type Smad3 [5]: 160%
Substance: Renilla luciferase-Smad3 Del-PPGY (182–185) (from UniProt P84022 1-425) (natural protein)
